Reference: patent publication US20240091361A1, “T CELL RECEPTORS TARGETING RAS MUTATIONS AND USES THEREOF” (MEMORIAL SLOAN-KETTERING CANCER CENTER, priority 2021, published 2024)

Key:
[1] = biological target: T1, KRAS G12D (10-mer; the same sequence in NRAS G12D and HRAS G12D) peptide on HLA-A*11:01 (human); test: multimer staining
T1 peptide: VVVGADGVGK

[2] = biological target: T2, DYH8 peptide on HLA-A*11:01 (human); test: cytokine release
T2 peptide: KVAGADGKGI

[3] = biological target: T3, CHADL peptide on HLA-A*11:01 (human); test: cytokine release
T3 peptide: RQCGADKVGK

[4] = biological target: T4, GTR14; GTR3 (the same peptide, also listed as SEQ ID NO 88) peptide on HLA-A*11:01 (human); test: cytokine release
T4 peptide: QAHGADRSGK

[5] = biological target: T5, PBX3 peptide on HLA-A*11:01 (human); test: cytokine release
T5 peptide: GHEGADGDGR

[6] = biological target: T6, KRAS wild type (10-mer) peptide on HLA-A*11:01 (human); test: cytokine release
T6 peptide: VVVGAGGVGK

[7] = biological target: T7, EFMT2 peptide on HLA-A*11:01 (human); test: cytokine release
T7 peptide: MSSGADGGGG

[8] = biological target: T8, KRAS G12D (9-mer; the same sequence in NRAS G12D and HRAS G12D) peptide on HLA-A*11:01 (human); test: cytokine release
T8 peptide: VVGADGVGK

[9] = biological target: T9, TBL3 peptide on HLA-A*11:01 (human); test: cytokine release
T9 peptide: LSSGSDGLVK

[10] = biological target: T10, HIC1 peptide on HLA-A*11:01 (human); test: cytokine release
T10 peptide: GVPGPDGKGK

[11] = biological target: T11, MARF1 peptide on HLA-A*11:01 (human); test: cytokine release
T11 peptide: LKLGADGSGP

[12] = biological target: T12, FOXL2 peptide on HLA-A*11:01 (human); test: cytokine release
T12 peptide: AGAGADGYGY

[13] = biological target: T13, HMCN2 peptide on HLA-A*11:01 (human); test: cytokine release
T13 peptide: IKQGADGSGT

[14] = biological target: T14, GEM (also listed as SEQ ID NOs 82, 106, 130, 141) peptide on HLA-A*11:01 (human); test: cytokine release
T14 peptide: AVFGAGGVGK

[15] = biological target: T15, ZN646 peptide on HLA-A*11:01 (human); test: cytokine release
T15 peptide: PEDGADGWGP

[16] = biological target: T16, MICU1 peptide on HLA-A*11:01 (human); test: cytokine release
T16 peptide: YFFGADLKGK

[17] = biological target: T17, MED13 peptide on HLA-A*11:01 (human); test: cytokine release
T17 peptide: NNDGADGMGI

[18] = biological target: T18, DAZP1 peptide on HLA-A*11:01 (human); test: cytokine release
T18 peptide: NNSGADEIGK

[19] = biological target: T19, FMNL1 peptide on HLA-A*11:01 (human); test: cytokine release
T19 peptide: QEAGADTPGK

[20] = biological target: T20, ADA2C peptide on HLA-A*11:01 (human); test: cytokine release
T20 peptide: GAGGADGQGA

[21] = biological target: T21, CC88B peptide on HLA-A*11:01 (human); test: cytokine release
T21 peptide: LRLGADGAGS

[22] = biological target: T22, MYLK peptide on HLA-A*11:01 (human); test: cytokine release
T22 peptide: GGVGADGGGS

[23] = biological target: T23, PER1 peptide on HLA-A*11:01 (human); test: cytokine release
T23 peptide: PLEGADGGGD

[24] = biological target: T24, NDF2 peptide on HLA-A*11:01 (human); test: cytokine release
T24 peptide: TEQGADGAGR

[25] = biological target: T25, RSLAA peptide on HLA-A*11:01 (human); test: cytokine release
T25 peptide: AVLGAPGVGK

[26] = biological target: T26, SHAN3 peptide on HLA-A*11:01 (human); test: cytokine release
T26 peptide: TTVPSPASGK

[27] = biological target: T27, RL7A peptide on HLA-A*11:01 (human); test: cytokine release
T27 peptide: KVAPAPAVVK

[28] = biological target: T28, IL17F peptide on HLA-A*11:01 (human); test: cytokine release
T28 peptide: KTLHGPAMVK

[29] = biological target: T29, CPNS1 peptide on HLA-A*11:01 (human); test: cytokine release
T29 peptide: AVMDSDTTGK

[30] = biological target: T30, CPNS2 peptide on HLA-A*11:01 (human); test: cytokine release
T30 peptide: SVMDSDTTGK

[31] = biological target: T31, K1671 peptide on HLA-A*11:01 (human); test: cytokine release
T31 peptide: TTKSGPALGK

[32] = biological target: T32, SEZ6 peptide on HLA-A*11:01 (human); test: cytokine release
T32 peptide: LSLEAPTVGK

[33] = biological target: T33, ABCF1 peptide on HLA-A*11:01 (human); test: cytokine release
T33 peptide: STSPSDKVVK

[34] = biological target: T34, IGM peptide on HLA-A*11:01 (human); test: cytokine release
T34 peptide: LTESGPALVK

[35] = biological target: T35, FLNA peptide on HLA-A*11:01 (human); test: cytokine release
T35 peptide: VTIDGPSKVK

[36] = biological target: T36, CD166 peptide on HLA-A*11:01 (human); test: cytokine release
T36 peptide: NVFEAPTIVK

[37] = biological target: T37, SALL1 peptide on HLA-A*11:01 (human); test: cytokine release
T37 peptide: SATSPPGSVK

[38] = biological target: T38, CFA47 peptide on HLA-A*11:01 (human); test: cytokine release
T38 peptide: MVFDSPTIGK

[39] = biological target: T39, GRIN1 peptide on HLA-A*11:01 (human); test: cytokine release
T39 peptide: GTAGPPSAVK

[40] = biological target: T40, KZF4 peptide on HLA-A*11:01 (human); test: cytokine release
T40 peptide: HSVSSPTVGK

[41] = biological target: T41, CL056 peptide on HLA-A*11:01 (human); test: cytokine release
T41 peptide: SSQSAPTTGK

[42] = biological target: T42, BMS1 peptide on HLA-A*11:01 (human); test: cytokine release
T42 peptide: VVMGPPKVGK

[43] = biological target: T43, LEGL peptide on HLA-A*11:01 (human); test: cytokine release
T43 peptide: SVADSDAVVK

[44] = biological target: T44, KAD3 peptide on HLA-A*11:01 (human); test: cytokine release
T44 peptide: VIMGAPGSGK

[45] = biological target: T45, CK049 peptide on HLA-A*11:01 (human); test: cytokine release
T45 peptide: YSCPPPALVK

[46] = biological target: T46, COBA1 peptide on HLA-A*11:01 (human); test: cytokine release
T46 peptide: GPAGQDGVGG

[47] = biological target: T47, NLRP9 peptide on HLA-A*11:01 (human); test: cytokine release
T47 peptide: VLEGPDGIGK

[48] = biological target: T48, COIA1 peptide on HLA-A*11:01 (human); test: cytokine release
T48 peptide: GDPGKDGVGQ

[49] = biological target: T49, ABCF1 peptide on HLA-A*11:01 (human); test: cytokine release
T49 peptide: CIVGPNGVGK

[50] = biological target: T50, PRA19 peptide on HLA-A*11:01 (human); test: cytokine release
T50 peptide: KLFISDGCGY

[51] = biological target: T51, USH1G peptide on HLA-A*11:01 (human); test: cytokine release
T51 peptide: EDGGLDGVGA

[52] = biological target: T52, MEIS1 peptide on HLA-A*11:01 (human); test: cytokine release
T52 peptide: HYGGMDGVGI

[53] = biological target: T53, DNHD1 peptide on HLA-A*11:01 (human); test: cytokine release
T53 peptide: TVLGPNGVGK

[54] = biological target: T54, IBP7 peptide on HLA-A*11:01 (human); test: cytokine release
T54 peptide: PVCGSDGTTY

[55] = biological target: T55, BY55 peptide on HLA-A*11:01 (human); test: cytokine release
T55 peptide: RDPGIDGVGE

[56] = biological target: T56, AGRIN peptide on HLA-A*11:01 (human); test: cytokine release
T56 peptide: PVCGSDGVTY

[57] = biological target: T57, SO5A1 peptide on HLA-A*11:01 (human); test: cytokine release
T57 peptide: PVCGSDGITY

[58] = biological target: T58, SO3A1 peptide on HLA-A*11:01 (human); test: cytokine release
T58 peptide: PVCGADGITY

[59] = biological target: T59, CO8A2 peptide on HLA-A*11:01 (human); test: cytokine release
T59 peptide: GPPGVDGVGV

[60] = biological target: T60, EFGM peptide on HLA-A*11:01 (human); test: cytokine release
T60 peptide: EVKGKDGVGA

[61] = biological target: T61, SUCB2 peptide on HLA-A*11:01 (human); test: cytokine release
T61 peptide: CAIIANGITK

[62] = biological target: T62, SMC5 peptide on HLA-A*11:01 (human); test: cytokine release
T62 peptide: MIVGANGTGK

[63] = biological target: T63, CGAT2 peptide on HLA-A*11:01 (human); test: cytokine release
T63 peptide: RNVGANGIGY

[64] = biological target: T64, CO6A3 peptide on HLA-A*11:01 (human); test: cytokine release
T64 peptide: GDDGRDGVGS

[65] = biological target: T65, PUR2 peptide on HLA-A*11:01 (human); test: cytokine release
T65 peptide: LASGTDGVGT

[66] = biological target: T66, SOCS7 peptide on HLA-A*11:01 (human); test: cytokine release
T66 peptide: GSGGGDGTGK

[67] = biological target: T67, MEIS2 peptide on HLA-A*11:01 (human); test: cytokine release
T67 peptide: HYGGMDGVGV

Measured: binding result

B1: TCR 3 (TCR, V domains shown)
Valpha: AQTVTQSQPEMSVQEAETVTLSCTYDTSESDYYLFWYKQPPSRQMILVIRQEAYKQQNATENRFSVNFQKAAKSFSLKISDSQLGDAAMYFCAYRSDGGATNKLIFGTGTLLAVQP
Vbeta: EAQVTQNPRYLITVTGKKLTVTCSQNMNHEYMSWYRQDPGLGLRQIYYSMNVEVTDKGDVPEGYKVSRKEKRNFPLILESPSPNQTSLYFCASSLGAGGYNSPLHFGNGTRLTVT
no recognition: [2] | [3] | [4] | [5] | [6] | [7] | [9] | [10] | [11] | [12] | [13] | [14] | [15] | [16] | [17] | [18] | [19] | [20] | [21] | [22] | [23] | [24]
recognises: [1] | [8]

B2: TCR 2 (TCR, V domains shown)
Valpha: AQTVTQSQPEMSVQEAETVTLSCTYDTSENNYYLFWYKQPPSRQMILVIRQEAYKQQNATENRFSVNFQKAAKSFSLKISDSQLGDTAMYFCAFMYPSQGGSEKLVFGKGMKLTVNP
Vbeta: ETGVTQSPTHLIKTRGQQVTLRCSSQSGHNTVSWYQQALGQGPQFIFQYYREEENGRGNFPPRFSGLQFPNYSSELNVNALELDDSALYLCASSSPGFRSYGYTFGSGTRLTVV
recognises: [1] | [8]
no recognition: [25] | [26] | [27] | [28] | [6] | [29] | [30] | [31] | [32] | [14] | [33] | [34] | [35] | [36] | [37] | [38] | [39] | [40] | [41] | [42] | [43] | [44] | [45]

B3: TCR 4 (TCR, V domains shown)
Valpha: QKEVEQDPGPLSVPEGAIVSLNCTYSNSAFQYFMWYRQYSRKGPELLMYTYSSGNKEDGRFTAQVDKSSKYISLFIRDSQPSDSATYLCAMGALNSGAGSYQLTFGKGTKLSVIP
Vbeta: KAGVTQTPRYLIKTRGQQVTLSCSPISGHRSVSWYQQTPGQGLQFLFEYFSETQRNKGNFPGRFSGRQFSNSRSEMNVSTLELGDSALYLCASSLSSGTGTEAFFGQGTRLTVV
recognises: [1]
no recognition: [46] | [47] | [48] | [49] | [50] | [51] | [52] | [53] | [6] | [54] | [55] | [56] | [57] | [58] | [59] | [60] | [14] | [61] | [62] | [63] | [64] | [65] | [66] | [67]
